In patent US20260000780A1, “B-LYMPHOCYTE SPECIFIC AMATOXIN ANTIBODY CONJUGATES” (priority 2021, published 2026):

Experiments:
RNA-polymerase II = RNA-polymerase II (Homo sapiens, UniProt P24928+P30876); conditions: read-out: KD of the complex between amanitin and RNA-polymerase II; cited from earlier work
MEC-2 tumor xenograft = test: Disseminated MEC-2 tumor xenograft model; type: in vivo, CB17 Scid mice; conditions: day 138 after treatment
Protocol: Cytotoxic efficacy studies in vivo were performed using various anti-CD37 antibody amatoxin conjugates in a disseminated MEC-2 tumor xenograft model over 140 days of treatment.
Tumor cell inoculation was done on day −3 by i.v. injection of 2.5×10^6 MEC-2 cells in CB17 Scid mice. Treatment was performed on day 0 by single dose i.v. injection at maximum tolerable dose (MTD) of ⅛ and MTD of 1/16 doses, respectively. Readout of the study was body weight and survival. Results are shown in FIG. 10 (body weight) and FIG. 11 (survival) at day 138 after treatment. All groups treated with conjugate gained body weight as normal, in contrast to the control group.
Treatment groups are defined in Table 4. Group 10 (chHH1-HDP-LALA-D265C, p.o., single dose; 10 mg/kg) was excluded from analysis. Group 11 (Ibrutinib) was treated with Ibrutinib p.o. 5x/w for 3 weeks at a dose 25 mg/kg.

[1] = tested on: Richter syndrome cells (PDX RS1316); test: Richter's syndrome patient-derived xenograft (PDX) model, intravenous; type: in vivo, CB17 Scid mice; conditions: for efficacy in treating RS / tolerability of a single dose: single dose at different doses, 15 days post engraftment
Text: The patient-derived xenograft (PDX) model for Richter's syndrome were adapted from Cancer Res (2018); 78 (13); 3413-20 with modifications.
Briefly, a total of 2×10^7 primary Richter syndrome cells from peripheral blood or lymph nodes were resuspended in Matrigel (BD Biosciences) and subcutaneously injected (double flank) in 8-week old CB17 Scid mice immunocompromised mice and left to engraft. Tumor masses were then collected, partially disrupted, and tumor cells reinjected as a single-cell suspension in Matrigel. These steps were repeated several times to obtain stable models of Richter syndrome.
For the intravenous model, 10^7 Richter syndrome cells purified from tumor masses were resuspended in PBS and injected in the tail vein of the mice. Mice were injected with a single dose of the conjugates XXIII, XXIV, or XXVI as indicated. All mice within the PBS control group died within 68 days post engraftment. One animal in the group receiving conjugate XXVI at a dose of 5 mg/kg i.v. died at day 90 post engraftment.
To assess residual RS disease activity in the organs of engrafted animals mice were euthanized and peripheral blood and organs (kidneys, spleen, bone marrow, lung, liver, and brain) collected and disease spread evaluated by flow cytometry, using anti-human antibodies (CD45PerCPCy5.5/CD19APC/CD20FITC).

Raji-Luc tumor xenograft = test: Disseminated Raji-Luc tumor xenograft model; type: in vivo, CB17 Scid mice; conditions: single dose i.v., day 89 after treatment
Protocol: Cytotoxic efficacy studies in vivo were performed using various anti-CD37 antibody amatoxin conjugates in a disseminated Raji-Luc tumor xenograft model over 89 days of treatment.
Tumor cell inoculation was done on day-3 by i.v. injection of 2.5×10^6 Raji-Luc cells in CB17 Scid mice. Treatment was performed on day 0 by single dose i.v. injection at maximum tolerable dose (MTD) of 1/16 and MTD of 1/64 doses of cynomolgus MTD, respectively. Readout of the study was body weight, bioluminescence and survival. Results are shown in FIG. 10 (body weight), FIG. 11 (bioluminescence) and FIG. 12 (survival) at day 89 after treatment. All groups treated with conjugate gained body weight as normal, in contrast to the control group.

amanitin
Kd (RNA-polymerase II): 3 nM

C=CC(=O)N1CCC[C@@H](n2nc(-c3ccc(Oc4ccccc4)cc3)c3c(N)ncnc32)C1 [Ibrutinib, reference compound]
Alive animals (MEC-2 tumor xenograft; 25 mg/kg p.o. 5×/w for 3 weeks): 0/10

B1: conjugate XXVI (conjugate)
heavy: EIQLQQSGPELVKPGASVKVSCKASGYSFTDYNMYWVKQSHGKSLEWIGYIDPYNGDTTYNQKFKGKATLTVDKSSSTAFIHLNSLTSEDSAVYYCARSPYGHYAMDYWGQGTSVTVSSASTKGPSVFPLAPSSKSTSGGTAALGCLVKDYFPEPVTVSWNSGALTSGVHTFPAVLQSSGLYSLSSVVTVPSSSLGTQTYICNVNHKPSNTKVDKKVEPKSCDKTHTCPPCPAPEAAGGPSVFLFPPKPKDTLMISRTPEVTCVVVCVSHEDPEVKFNWYVDGVEVHNAKTKPREEQYNSTYRVVSVLTVLHQDWLNGKEYKCKVSNKALPAPIEKTISKAKGQPREPQVYTLPPSREEMTKNQVSLTCLVKGFYPSDIAVEWESNGQPENNYKTTPPVLDSDGSFFLYSKLTVDKSRWQQGNVFSCSVMHEALHNHYTQKSLSLSPGK
light: DIVMTQSHKLLSTSVGDRVSITCKASQDVSTAVDWYQQKPGQSPKLLINWASTRHTGVPDRFTGSGSGTDYTLTISSMQAEDLALYYCRQHYSTPFTFGSGTKLEIKRTVAAPSVFIFPPSDEQLKSGTASVVCLLNNFYPREAKVQWKVDNALQSGNSQESVTEQDSKDSTYSLSSTLTLSKADYEKHKVYACEVTHQGLSSPVTKSFNRGEC
animals that died in the treated group ([1]; 5 mg/kg i.v. single dose, n=4, death at day 90 post engraftment): One animal
efficacy in treating RS [1]: effective in treating RS
tolerability of a single dose [1]: well tolerated

B2: Conjugate XXIV (conjugate)
heavy: EIQLQQSGPELVKPGASVKVSCKASGYSFTDYNMYWVKQSHGKSLEWIGYIDPYNGDTTYNQKFKGKATLTVDKSSSTAFIHLNSLTSEDSAVYYCARSPYGHYAMDYWGQGTSVTVSSASTKGPSVFPLAPSSKSTSGGTAALGCLVKDYFPEPVTVSWNSGALTSGVHTFPAVLQSSGLYSLSSVVTVPSSSLGTQTYICNVNHKPSNTKVDKKVEPKSCDKTHTCPPCPAPEAAGGPSVFLFPPKPKDTLMISRTPEVTCVVVCVSHEDPEVKFNWYVDGVEVHNAKTKPREEQYNSTYRVVSVLTVLHQDWLNGKEYKCKVSNKALPAPIEKTISKAKGQPREPQVYTLPPSREEMTKNQVSLTCLVKGFYPSDIAVEWESNGQPENNYKTTPPVLDSDGSFFLYSKLTVDKSRWQQGNVFSCSVMHEALHNHYTQKSLSLSPGK
light: DIVMTQSHKLLSTSVGDRVSITCKASQDVSTAVDWYQQKPGQSPKLLINWASTRHTGVPDRFTGSGSGTDYTLTISSMQAEDLALYYCRQHYSTPFTFGSGTKLEIKRTVAAPSVFIFPPSDEQLKSGTASVVCLLNNFYPREAKVQWKVDNALQSGNSQESVTEQDSKDSTYSLSSTLTLSKADYEKHKVYACEVTHQGLSSPVTKSFNRGEC
Alive animals (MEC-2 tumor xenograft; 1.25 mg/kg (MTD 1/16), i.v. single dose): 4/10
Alive animals (MEC-2 tumor xenograft; 2.5 mg/kg (MTD 1/8), i.v. single dose): 6/10
efficacy in treating RS [1]: effective in treating RS
tolerability of a single dose [1]: well tolerated
residual RS disease activity in organs (flow cytometry CD45/CD19/CD20) ([1]; single dose, 5 mg): significantly reduce
Alive animals (Raji-Luc tumor xenograft; 0.188 mg/kg (MTD 1/64)): 9/10
Alive animals (Raji-Luc tumor xenograft; 0.75 mg/kg (MTD 1/16)): 10/10

B3: Conjugate XXV (conjugate)
heavy chain: EIQLQQSGPELVKPGASVKVSCKASGYSFTDYNMYWVKQSHGKSLEWIGYIDPYNGDTTYNQKFKGKATLTVDKSSSTAFIHLNSLTSEDSAVYYCARSPYGHYAMDYWGQGTSVTVSSASTKGPSVFPLAPSSKSTSGGTAALGCLVKDYFPEPVTVSWNSGALTSGVHTFPAVLQSSGLYSLSSVVTVPSSSLGTQTYICNVNHKPSNTKVDKKVEPKSCDKTHTCPPCPAPEAAGGPSVFLFPPKPKDTLMISRTPEVTCVVVCVSHEDPEVKFNWYVDGVEVHNAKTKPREEQYNSTYRVVSVLTVLHQDWLNGKEYKCKVSNKALPAPIEKTISKAKGQPREPQVYTLPPSREEMTKNQVSLTCLVKGFYPSDIAVEWESNGQPENNYKTTPPVLDSDGSFFLYSKLTVDKSRWQQGNVFSCSVMHEALHNHYTQKSLSLSPGK
light chain: DIVMTQSHKLLSTSVGDRVSITCKASQDVSTAVDWYQQKPGQSPKLLINWASTRHTGVPDRFTGSGSGTDYTLTISSMQAEDLALYYCRQHYSTPFTFGSGTKLEIKRTVAAPSVFIFPPSDEQLKSGTASVVCLLNNFYPREAKVQWKVDNALQSGNSQESVTEQDSKDSTYSLSSTLTLSKADYEKHKVYACEVTHQGLSSPVTKSFNRGEC
Alive animals (MEC-2 tumor xenograft; 0.94 mg/kg (MTD 1/16), i.v. single dose): 8/10
Alive animals (MEC-2 tumor xenograft; 1.88 mg/kg (MTD 1/8), i.v. single dose): 9/10
Alive animals (Raji-Luc tumor xenograft; 0.188 mg/kg (MTD 1/64)): 9/10
Alive animals (Raji-Luc tumor xenograft; 0.75 mg/kg (MTD 1/16)): 10/10
